Key:
[1] = molecular target: soluble Aβ1-42 (Aβ42 authentic sample) (Homo sapiens, UniProt P05067); assay: Hydrolysis activity against soluble Aβ1-42 (authentic sample)
Protocol: (§2) As substrates, Aβ42 in the form of soluble powder (authentic sample, Peptide Institute Inc.) and fragment peptides thereof, namely, Aβ1-20, Aβ11-29, and soluble Aβ28-42, were used. […] In the case of MS analysis, the MS analysis was performed after applying 20 μl of the reaction solution to HPLC and collecting an aliquot of the peak.
Aβ42 was used as a substrate. […] In the case of MS analysis, the MS analysis was performed after applying 20 μl of the reaction solution after the reaction for 7 days to HPLC and collecting an aliquot of the peak.

Aβ1-20 and Aβ11-29 = assay: Reaction rates / Km for Aβ1-20 and Aβ11-29; assay type: biochemical; settings: Aβ-F 0.05, 0.2 or 0.4 mmol/l, 0 or 1 hour
Protocol: HPLC was performed with the Aβ-F concentration in a reaction solution being set to 0.05, 0.2, or 0.4 mmol/l and a reaction time being set to 0 hours or 1 hour. Then, on the basis of the reduction rate of the peak of each Aβ-F, the Km value was determined.

Aβ1-20 = Aβ1-20 (Homo sapiens, UniProt P05067); assay: Hydrolysis activity against Aβ1-20
Protocol: (§3) Further, any change in activity caused by addition of human serum albumin (HSA, Wako Pure Chemical Industries, Ltd., final concentration 0.025%) also was measured.
as §2
(§4) The present experiment examined activity against Aβ-Fs in Example 7.
(§5) As substrates, the same Aβ1-20 and Aβ11-29 as used in Example 7 were used.

solid (insoluble) Aβ1-42 = solid (insoluble) Aβ1-42 (Homo sapiens, UniProt P05067); assay: Hydrolysis activity against solid (insoluble) Aβ1-42
Protocol: As a solid substrate, a crystal of Aβ42 was used. […] In the case of MS analysis, the MS analysis was performed after applying 100 μl of the reaction solution to HPLC and collecting an aliquot of the peak.

Aβ42 = Aβ42 (Homo sapiens, UniProt P05067); assay: Intermolecular interaction with Aβ42 (AFFINX QNμ); assay type: binding; settings: JAL-TA9 immobilized on platinum electrode
Excerpt: (§1) Intermolecular interactions of JAL-TA9 with Aβ42 and with Aβ-F were examined using an AFFINX QNμ (trade name, INITIUM, Inc.) in accordance with its protocol. The results obtained are shown in the graphs of FIG. 40. In FIG. 40, X indicates the result obtained when JAL-TA9 was not immobilized on a platinum electrode, and Y indicates the result obtained when JAL-TA9 was immobilized on the platinum electrode.

[2] = Autodigestion of the catalytic peptide (HPLC, MS); assay type: biochemical
Protocol: First, to a buffer solution (Tris-HCl, pH 6.5, final concentration: 100 mmol/l), JAL (final concentration: 0.2 mmol/l) and the fragment peptide of hMMP7 (final concentration 0.05 mmol/l) were added. […] Thereafter, the reaction solution was subjected to HPLC, and the peaks of JAL and the fragment peptide of hMMP7 were examined. HPLC was performed under the following conditions.
Next, the mechanism of autodigestion was examined using various mutants of JAL as hydrolytic peptides. To a reaction solution containing each of the mutants of JAL, a protease inhibitor (trade name: Roche cOmplete, Roche) was added to cause a reaction. One tablet of the protease inhibitor was dissolved in 1 ml of Milli-Q water, and then, 50 μl of the resultant mixture was added to the reaction solution. […] As a result, the autodigestion of all the peptides subjected to the measurement was inhibited (FIG. 16).
Autodigestion in Box B was examined.
JAL-TA9 was reacted in the same manner except that a substrate was not added to examine the autodigestion of JAL-TA9.
The influence of an inhibitor on autodigestion of JAL-TA9 was examined. […] As the protease inhibitor, the serine protease inhibitor AEBSF, which inhibited the autodigestion of JAL 12-22 C19M in the item (6) in Example 4, was used.

αA-crystallin = molecular target: T1, αA-crystallin (Homo sapiens, UniProt P02489); assay: Degradation of αA-crystallin 71-88 fragment peptide; assay type: biochemical
T1 construct: consisting of 71-88 residues of αA-crystallin; made in house; host or cells: chemical synthesis (Setsunan University)
Excerpt: As a substrate, a fragment peptide with the following sequence consisting of 71-88 residues of αA-crystallin (synthesized in Setsunan University) was used.

Aβ28-42 = Aβ28-42 (Homo sapiens, UniProt P05067); assay: Hydrolysis activity against Aβ28-42; assay type: biochemical
Tau MBD 1-30 = Tau MBD 1-30 (Homo sapiens, UniProt P10636); assay: Hydrolysis activity against Tau MBD 1-30; assay type: biochemical
Sequence of Tau MBD 1-30 (P10636 609-638 limits assumed): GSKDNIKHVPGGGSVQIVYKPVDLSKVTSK
Excerpt: As a substrate, a Tau microtubule binding domain (MBD)-derived fragment (Tau MBD1-30) was used.

Aβ11-29 [3] = molecular target: T2, Aβ11-29 (Homo sapiens, UniProt P05067); assay: Intermolecular interaction with Aβ11-29 (AFFINX QNμ); assay type: binding; settings: JAL-TA9 immobilized on platinum electrode
Excerpt: as §1

Aβ11-29 [4] = molecular target: T2, Aβ11-29; assay: Hydrolysis activity against Aβ11-29
Protocol: as §3, §2
As a substrate, Aβ11-29, which is a fragment peptide of Aβ42, was used. […] In the case of MS analysis, the MS analysis was performed after applying 20 μl of the reaction solution after the reaction for 6 days to HPLC and collecting an aliquot of the peak.
as §4
The reaction solution V shown in FIG. 52 was incubated at 37° C. for a predetermined time, and autodigestion of ANA-YA4 (YRMI) and cleavage of Aβ11-29 were examined.
A reaction solution VI shown in FIG. 52 was incubated at 37° C. for a predetermined time, and cleavage of Aβ1-20 and Aβ11-29 by ANA-SA5 was examined.
as §5
The present example examined autodigestion and activity against Aβ-F of JAL 12-17 (YKGSGF) and JAL 12-16 (YKGSG). […] As a substrate, the same Aβ11-29 as used in Example 7 was used. The autodigestion was examined by causing the reaction in the same manner, except that the substrate was not added.

[5] = reaction solution composition 1 (PBS, HSA), 37° C., overnight

## PYKGSGFRMI [JAL-TA9]
[1]; authentic sample Aβ42, reaction solution composition 1
  degradation of Aβ42 (HPLC): degraded both types of Aβ42
[1]; soluble authentic sample, 7 days
  cleavage sites in Aβ42 (MS): cleaved at a plurality of sites
[1]; summary of cleavage sites, FIG. 39
  region of Aβ42 cleaved: strong cleavage activity was exhibited against an intermediate region of Aβ42
Aβ1-20 and Aβ11-29
  Km value, affinity of substrate to peptide: Aβ11-29 has higher affinity to JAL-TA9 than Aβ1-20
Aβ1-20; Example 7
  cleavage sites in Aβ-Fs (MS): cleaved at a plurality of sites
Aβ1-20; [5]
  degradation of Aβ-Fs (HPLC): degraded all the Aβ-Fs
Solid (insoluble) Aβ1-42; solid Aβ42
  cleavage of solid Aβ42 (MS): activity against the solid Aβ42 also was observed
Solid (insoluble) Aβ1-42; solid Aβ42, reaction solution composition 2
  degradation of Aβ42 (HPLC): degraded both types of Aβ42
Aβ42
  intermolecular interaction: strong interaction
[2]; AEBSF 6 mmol/l
  autodigestion in presence of protease inhibitor: autodigestion was inhibited
[2]; Example 7, substrate not added
  autodigestion: autodigestion of JAL-TA9 was observed
[2]; Example 13, with αA-crystallin fragment
  autodigestion: digested itself
[2]; reaction solution IV, 6 hours
  autodigestion in presence of protease inhibitor: inhibited by the protease inhibitor
αA-crystallin
  fragment identification by MS: fragments of αA-crystallin resulting from the cleavage by JAL-TA9 were detected
αA-crystallin; JAL-TA9 0.2 mmol/l, PBS, HSA, reaction for 1 day
  degradation of αA-crystallin: could degrade αA-crystallin
Aβ28-42; Example 7
  cleavage sites in Aβ-Fs (MS): cleaved at a plurality of sites
Aβ28-42; [5]
  degradation of Aβ-Fs (HPLC): degraded all the Aβ-Fs
Tau MBD 1-30; reaction for 1 day
  fragment identification by MS: fragments of Tau MBD 1-30 resulting from the cleavage by JAL-TA9
Tau MBD 1-30; reaction for 5 days
  fragment identification by MS: fragments of Tau MBD 1-30 resulting from the cleavage by JAL-TA9
Tau MBD 1-30; reaction solution composition 3, 37° C., overnight
  degradation of Tau MBD 1-30 (HPLC): degraded Tau MBD 1-30
Aβ11-29 [3]
  intermolecular interaction: strong interaction
Aβ11-29 [4]; Example 7
  cleavage sites in Aβ-Fs (MS): cleaved at a plurality of sites
Aβ11-29 [4]; [5]
  degradation of Aβ-Fs (HPLC): degraded all the Aβ-Fs
